The record followed here is US20100291074A1, “CYCLOPHILIN D-AMYLOID BETA INTERACTION POTENTIATES MITOCHONDRIAL DYSFUNCTION IN A TRANSGENIC MOUSE MODEL OF ALZHEIMER'S DISEASE” (COLUMBIA UNIVERSITY IN THE CITY OF NEW YORK, priority 2007, published 2010).

The target of this assay is Aβ (amyloid beta peptide, length and aggregation state not specified; ˜4 kDa band) (UniProt P05067). Briefly: cell-based or functional assay.

“mouse CypD, endogenous, in brain mitochondria and cultured cortical neurons of nonTg and Tg mAPP mice (from UniProt Q99KR7 30-206) (enzyme)” showed a mitochondrial ROS (MitoSox staining) in brain slices, Tg mAPP/CypD-/- versus Tg mAPP mice of 80%.
